The target of experiment [1] is T1, purified hGM-CSF (Biomol #2514, expressed in E. coli) (human, UniProt P04141 18-144). Put plainly: cell-based or functional assay.
The target of experiment [2] is rhesus GM-CSF (rhesus). Kind of experiment: cell-based or functional assay.
In experiment [3] the target is T1, purified hGM-CSF (Biomol #2514, …). Kind of experiment: cell-based or functional assay. This is another data set of the same source.
In experiment [4] the target is rhesus GM-CSF (rhesus). Kind of experiment: cell-based or functional assay. This is another data set of the same source.
Experiment [5] addresses T2, recombinant hGM-CSF derived from yeast (Leukine, Berlex) (human, UniProt P04141 18-144).
T2 construct: Bought protein; also called yeast hGM-CSF (Leukine); yeast rhGM-CSF
Kind of experiment: SPR (Biacore), antibody captured on protein G, hGM-CSF injected. Here is the method: (§1) To calculate affinity constants for recombinant hGM-CSF binding to anti-hGM-CSF monoclonal antibodies, surface plasmon resonance (SPR) was performed on a Biacore System™ (FIG. 2).
(§2) In the method to analyze the interaction between antibodies and antigens, the purified antibodies were captured on a sensor chip via interaction with protein G immobilized to sensor chip surface, and then recombinant antigens were injected to the sensor chip. Purified antibodies were used and recombinant hGM-CSF was used as an antigen.

Experiment [6] addresses T3, recombinant hGM-CSF derived from E. coli (Peprotech) (human, UniProt P04141 18-144).
T3 construct: Bought protein; also called E. coli hGM-CSF (Peprotech); E. coli rhGM-CSF
The experiment is described as above. Here is the method: as §1, §2

Experiment [7] has as its target T4, rhesus GM-CSF (rhesus).
T4 construct: also called rrGM-CSF (derived from HEK cells); recombinant rhesus GM-CSF
Put plainly: Biacore, antibody on mouse anti-human chip, soluble rhesus GM-CSF. The source says:
(§3) Mouse anti-human Biacore chips (GE Healthcare) are used to immobilize each of the antibodies and soluble commercially available purified GM-CSF (Biomol) is allowed to bind. The hGM-CSF used in these experiments is the same as that used in the bioassays described below.
The rhesus GM-CSF sequence is present in the public databases (e.g., GenBank Accession No NP_{—}001028121) and is used to design an expression clone as an Fc fusion protein. Protease cleavage sites are introduced to allow release of untagged rhesus GM-CSF protein.
Background: In SPR one partner is held on a chip, and binding of the other changes the refractive index at the surface.

The next experiment addresses T5, marmoset GM-CSF (marmoset).
T5 construct: also called rmGM-CSF (derived from HEK cells); recombinant marmoset GM-CSF
Kind of experiment: Biacore, antibody on mouse anti-human chip, soluble marmoset GM-CSF.
Source text: as §3
A marmoset GM-CSF expression clone (e.g., GenBank Accession No. B0KWQ4 with Methionine at position 53 and Proline at position 109) similar to the rhesus GM-CSF expression clone described above is generated.

The target of experiment [8] is T1, purified hGM-CSF (Biomol #2514, …). Put plainly: Biacore, antibody on mouse anti-human chip, soluble hGM-CSF (Biomol).
Source text: as §3

Experiment [9] shares this target. Kind of experiment: cell-based or functional assay. This is another data set of the same source.
Experiment [10] has the same target. Kind of experiment: own Biacore KD of EV1018 set against the 7 pM cited for MOR04357-Fab from WO2006/122797.

Values joined by “and” are separate entries in the source; they are usually repeats but may differ in a detail not shown here. Identical values can stand only once.

T1 sequence (P04141 18-144 limits assumed): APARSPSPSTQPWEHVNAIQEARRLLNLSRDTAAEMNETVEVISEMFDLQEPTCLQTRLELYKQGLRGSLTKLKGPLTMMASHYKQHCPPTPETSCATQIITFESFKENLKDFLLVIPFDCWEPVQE
T3 sequence (P04141 18-144 limits assumed): as above
T2 sequence (P04141 18-144 limits assumed): as above

B1: EV1019 (antibody, human IgG1, lambda, V domains shown)
VH: QAQLVESGGGVVKPGGSLRLSCISSKFTFSSHAMHWVRQAPGKGLEWVAVIWHDGSKKYYADSVKGRFSVSRDNSKNTLFLQMDSLRAEDTAVYFCGKEWVGGTCDSWGQGTLVIVSS
VL: QPALTQEASVSGTVGQTVTLLCSGNSSNIGSYAVGWYQQISRGAPKIVVFGKSPASGIPDRFSGSKSGTTASLLVSGLQPEDEADYYCSTWDSRLSAVLFGGGTKLTVLR
notes: Fully human IgG1 lambda; also called EV1019 Batch 1; EV1019 Batch 2
Consider B1, for which the “IC50 in TF-1 proliferation assay” value was 5.7 ng/ml and 38 pM in [1]; 2.8 ng/ml and 19 pM with rhesus GM-CSF [2]. Also, the “IC50 in U937 IL-8 secretion assay” value is 4.7 ng/ml and 31.3 pM in experiment [3]; 2.4 ng/ml and 16 pM with rhesus GM-CSF [4]. The dissociation constant (Kd) – broadly, the constant that tells how readily two partners part at equilibrium – was 0.36 nM in experiment [5]; 0.15 nM in experiment [6]; 0.739 nM and 0.543 nM with rhesus GM-CSF [7]; 1.4 nM with marmoset GM-CSF; 0.152 nM in experiment [8].

B2: EV1018 variant 2 (antibody, human IgG1, lambda, L234A L235A, V domains shown)
VH: QVELVESGGGMVQPGMPLRLSCVASGFTFSSYGMHWVRQAPGKGLEWVALTYHHGNRKFYADSVRGRFTISRDNSKNTLYLQMTSLRAEDTAVYFCARESMGAINDNWGQGTLVIVSS
VL: QSALTQETSVSGTVGQKVTLSCIGNNNNIGSHAVGWYQQISRGAPKMVLFGRSPPSGVPDRFSGSKSGTTASLIISGLQPEDEADYYCSTWDSSLSAVVFGGGTKLTVLG
For the molecule B2, the “IC50 in TF-1 proliferation assay” value in [1] amounted to 0.0333 nM.

B3: EV1018 (antibody, human IgG1, lambda)
heavy: not shown
light: QSALTQETSVSGTVGQKVTLSCIGNNNNIGSHAVGWYQQISRGAPKMVLFGRSPPSGVPDRFSGSKSGTTASLIISGLQPEDEADYYCSTWDSSLSAVVFGGGTKLTVLRQPKAAPSVTLFPPSSEELQANKATLVCLISDFYPGAVTVAWKADSSPVKAGVETTTPSKQSNNKYAASSYLSLTPEQWKSHRSYSCQVTHEGSTVEKTVAPTECS
notes: also called wild-type EV1018; WT EV1018
For the molecule B3, the “IC50 in TF-1 proliferation assay” value in experiment [1] was 2.3 ng/ml and 15 pM; in the experiment with rhesus GM-CSF [2] it was 1.7 ng/ml and 11 pM. Further, the “Ratio: Reference antibody (BVD2-21C11) to antibody of interest, TF-1 assay” value in [9] came to 413 ratio. The “IC50 in U937 IL-8 secretion assay” value is 0.9 ng/ml and 6 pM in experiment [3]; 0.8 ng/ml and 5.6 pM with rhesus GM-CSF [4]. Also, the Kd in [5] worked out at 0.23 nM; in [6] it was 0.15 nM; with rhesus GM-CSF [7] it was 0.381 nM; with marmoset GM-CSF, 2.1 nM; in experiment [8], 0.112 nM. Further, the “times less binding than MOR04357” value in [10] is roughly 16 fold.

B4: EV1018 variant 1 (antibody, human IgG1, lambda, L234A L235A)
heavy: not shown
light: QSALTQETSVSGTVGQKVTLSCIGNNNNIGSHAVGWYQQISRGAPKMVLFGRSPPSGVPDRFSGSKSGTTASLIISGLQPEDEADYYCSTWDSSLSAVVFGGGTKLTVLGQPKAAPSVTLFPPSSEELQANKATLVCLISDFYPGAVTVAWKGDSSPVKAGVETTTPSKQSNNKYAASSYLSLTPEQWKSHRSYSCQVTHEGSTVEKTVAPTECS
For the molecule B4, in [1], the “IC50 in TF-1 proliferation assay” value came out at 0.032 nM.

The values above are taken from US20110182905A1 (published 2011).
